IntAct's records for PubMed 20679240

B1: Circadian clock oscillator protein KaiC (Synechococcus elongatus (strain PCC 7942)), Q79PF4 (parent)
chain: MTSAEMTSPNNNSEHQAIAKMRTMIEGFDDISHGGLPIGRSTLVSGTSGTGKTLFSIQFLYNGIIEFDEPGVFVTFEETPQDIIKNARSFGWDLAKLVDEGKLFILDASPDPEGQEVVGGFDLSALIERINYAIQKYRARRVSIDSVTSVFQQYDASSVVRRELFRLVARLKQIGATTVMTTERIEEYGPIARYGVEEFVSDNVVILRNVLEGERRRRTLEILKLRGTSHMKGEYPFTITDHGINIFPLGAMRLTQRSSNVRVSSGVVRLDEMCGGGFFKDSIILATGATGTGKTLLVSRFVENACANKERAILFAYEESRAQLLRNAYSWGMDFEEMERQNLLKIVCAYPESAGLEDHLQIIKSEINDFKPARIAIDSLSALARGVSNNAFRQFVIGVTGYAKQEEITGLFTNTSDQFMGAHSITDSHISTITDTIILLQYVEIRGEMSRAINVFKMRGSWHDKAIREFMISDKGPDIKDSFRNFERIISGSPTRITVDEKSELSRIVRGVQEKGPES
partner: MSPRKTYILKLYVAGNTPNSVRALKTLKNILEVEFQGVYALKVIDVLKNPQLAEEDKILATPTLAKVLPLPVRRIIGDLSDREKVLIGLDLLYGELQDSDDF
B2: Circadian clock oscillator protein KaiC (Synechococcus elongatus (strain PCC 7942)), Q79PF4 (parent)
chain: B1 chain
partner: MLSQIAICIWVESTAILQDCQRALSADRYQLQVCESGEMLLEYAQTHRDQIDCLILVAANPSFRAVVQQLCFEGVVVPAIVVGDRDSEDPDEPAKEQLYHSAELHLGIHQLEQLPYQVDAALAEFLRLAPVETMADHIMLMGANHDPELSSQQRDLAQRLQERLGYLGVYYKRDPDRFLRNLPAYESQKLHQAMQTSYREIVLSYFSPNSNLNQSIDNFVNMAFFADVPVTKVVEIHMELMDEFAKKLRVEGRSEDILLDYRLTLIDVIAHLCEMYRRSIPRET

Variants of: B1
Conditions: with kaib_syne7 kaiB

| Variant | effect of a mutation on the interaction |
| --- | --- |
| S431A;T432A | disrupting interaction strength |
| S431A;T432E | disrupting interaction strength |
| MTSAEMTSPNNNSEHQAIAKMRTMIEGFDDISHGGLPIGRSTLVSGTSGTGKTLFSIQFLYNGIIEFDEPGVFVTFEETPQDIIKNARSFGWDLAKLVDEGKLFILDASPDPEGQEVVGGFDLSALIERINYAIQKYRARRVSIDSVTSVFQQYDASSVVRRELFRLVARLKQIGATTVMTTERIEEYGPIARYGVEEFVSDNVVILRNVLEGERRRRTLEILKLRGTSHMKGEYPFTITDHGINIFPLGAMRLTQRSSNVRVSSGVVRLDEMCGGGFFKDSIILATGATGTGKTLLVSRFVENACANKERAILFAYEESRAQLLRNAYSWGMDFEEMERQNLLKIVCAYPESAGLEDHLQIIKSEINDFKPARIAIDSLSALARGVSNNAFRQFVIGVTGYAKQEEITGLFTNTSDQFMGAHSITDSHIATITDTIILLQYVEIRGEMSRAINVFKMRGSWHDKAIREFMISDKGPDIKDSFRNFERIISGSPTRITVDEKSELSRIVRGVQEKGPES [S431A] | disrupting interaction strength |
| S431D;T432A | disrupting interaction strength |

Variants of: B2
Conditions: with kaia_syne7 kaiA

| Variant | effect of a mutation on the interaction |
| --- | --- |
| S431A;T432A | decreasing interaction strength |
| MTSAEMTSPNNNSEHQAIAKMRTMIEGFDDISHGGLPIGRSTLVSGTSGTGKTLFSIQFLYNGIIEFDEPGVFVTFEETPQDIIKNARSFGWDLAKLVDEGKLFILDASPDPEGQEVVGGFDLSALIERINYAIQKYRARRVSIDSVTSVFQQYDASSVVRRELFRLVARLKQIGATTVMTTERIEEYGPIARYGVEEFVSDNVVILRNVLEGERRRRTLEILKLRGTSHMKGEYPFTITDHGINIFPLGAMRLTQRSSNVRVSSGVVRLDEMCGGGFFKDSIILATGATGTGKTLLVSRFVENACANKERAILFAYEESRAQLLRNAYSWGMDFEEMERQNLLKIVCAYPESAGLEDHLQIIKSEINDFKPARIAIDSLSALARGVSNNAFRQFVIGVTGYAKQEEITGLFTNTSDQFMGAHSITDSHIEEITDTIILLQYVEIRGEMSRAINVFKMRGSWHDKAIREFMISDKGPDIKDSFRNFERIISGSPTRITVDEKSELSRIVRGVQEKGPES [S431E;T432E] | increasing interaction strength |
